Measurements from patent US20110318356A1 (Novo Nordisk, published 2011).
Blank lines part the entries; values can stand above or below the binder they belong to.

Tests used:
[1] = target: T1, recombinant full length human tissue factor pathway inhibitor (TFPI) (human, UniProt P10646 29-304); test: SPR (Biacore), recombinant human TFPI over the mAb
T1 construct: also called TFPI1; human TFPI
Experimental: Binding interaction analysis was obtained by Surface Plasmon Resonance in a Biacore 3000. Capture of the relevant monoclonal antibody at a fixed concentration was obtained with immobilised mouse anti-IgG. Different concentrations of TFPI were tested.
(§1) These were followed by a direct binding kinetic procedure on selected mAb constructs, with the monoclonal antibody covalently coupled via free amine groups to the carboxymethylated dextrane membrane (CM5) on the sensor chip surface.

[2] = target: T1, recombinant full length human tissue …; test: SPR (Biacore)
Text: The affinity analyses were done using SRP as described below.
as §1

[3] = target: T1, recombinant full length human tissue …; test: SPR (Biacore), recombinant human TFPI
[4] = target: T1, recombinant full length human tissue …; test: SPR (Biacore), TFPI
[5] = target: T1, recombinant full length human tissue …; test: SPR (Biacore), recombinant human TFPI; remark: listed apart in the source
[6] = target: T1, recombinant full length human tissue …; test: SPR (Biacore T-100), mAb immobilised, full length human TFPI
Experimental: (§2) Binding interaction analysis was obtained by Surface Plasmon Resonance in a Biacore T-100 instrument. Capture of the relevant monoclonal antibody at a fixed concentration was obtained by direct immobilization to a CM5 chip of the mAb to a level of 500-1000 RU in 10 mM sodium acetate pH 4.5-5.0. […] Running and dilution buffer: 10 mM HEPES, 150 mM, 0.005% p20, pH 7.4. Regeneration was obtained by 10 mM Glycine, pH 1.7. Determination of kinetic and binding constants (kₒₙ, koff, KD) was obtained assuming a 1:1 interaction of TFPI and the antibody of interest using the Biacore T100 evaluation software. […] Regeneration of the chip was obtained by 10 mM Glycine, pH 1.7.

[7] = target: T1, recombinant full length human tissue …; test: SPR (Biacore T-100), mAb immobilised on CM5 chip, full length human TFPI, 1:1 model
Experimental: as §2

[8] = target: T2, human TFPI short form (1-161 amino acid residues) (human, UniProt P10646 29-189); test: SPR (Biacore T-100), mAb immobilised, TFPI161 (K1 and K2 domains)
T2 construct: also called TFPI161; TFPI (1-161)
Experimental: as §2

[9] = target: T1, recombinant full length human tissue …; test: cell-based or functional assay
[10] = target: T1, recombinant full length human tissue …; test: cell-based or functional assay; remark: listed apart in the source

B1: MuTFPI4F36 (TFPI-4F36A1B2) murine monoclonal antibody (antibody, mouse IgG1, kappa, V domains shown)
VH: EVELVESGGGLVKPGGSLKLSCAASGFTFSNYAMSWVRQTPEKRLEWVATISRSGSYSYFPDSVQGRFTISRDNAKNTLYLQMSSLRSEDTAMYYCTRLGGYDEGDAMDSWGQGTSVTVSS
VL: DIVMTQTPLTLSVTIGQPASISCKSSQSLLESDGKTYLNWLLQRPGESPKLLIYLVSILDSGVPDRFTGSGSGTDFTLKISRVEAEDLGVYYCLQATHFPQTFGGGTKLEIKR
notes: murine kappa / IgG1; also called anti-TFPI4F36A1B2; Murine TFPI4F36
Kd [1]: 0.0282 nM
kon [1]: 4.7e+06 M⁻¹ s⁻¹
Kd [2]: ~0.03 nM

B2: HzTFPI4F36-CDRgrafted (initial CDR grafted version of humanized TFPI4F36) (antibody, human IgG4 S228P, kappa)
heavy: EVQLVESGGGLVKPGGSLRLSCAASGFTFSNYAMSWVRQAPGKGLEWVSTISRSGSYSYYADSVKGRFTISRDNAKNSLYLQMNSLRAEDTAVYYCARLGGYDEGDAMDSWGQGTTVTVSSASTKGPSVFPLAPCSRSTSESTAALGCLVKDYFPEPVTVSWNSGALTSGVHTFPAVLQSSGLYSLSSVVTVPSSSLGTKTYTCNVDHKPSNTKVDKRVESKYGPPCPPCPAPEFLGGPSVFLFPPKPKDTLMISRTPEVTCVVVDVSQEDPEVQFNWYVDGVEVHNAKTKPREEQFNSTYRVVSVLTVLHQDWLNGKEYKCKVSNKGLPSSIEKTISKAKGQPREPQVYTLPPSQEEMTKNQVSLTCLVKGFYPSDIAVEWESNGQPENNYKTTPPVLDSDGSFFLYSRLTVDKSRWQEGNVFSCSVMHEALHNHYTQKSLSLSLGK
light: DIVMTQTPLSLSVTPGQPASISCKSSQSLLESDGKTYLNWYLQKPGQSPQLLIYLVSILDSGVPDRFSGSGSGTDFTLKISRVEAEDVGVYYCLQATHFPQTFGGGTKVEIKRTVAAPSVFIFPPSDEQLKSGTASVVCLLNNFYPREAKVQWKVDNALQSGNSQESVTEQDSKDSTYSLSSTLTLSKADYEKHKVYACEVTHQGLSSPVTKSFNRGEC
notes: human kappa/IgG4(S241P); also called hz4F36CDRgraft
Kd [1]: 2.06 nM
kon [1]: 1.07e+06 M⁻¹ s⁻¹
fold lower affinity than the original mouse TFPI4F36 antibody [2]: ≥ 100 fold

B6: HzTFPI4F36 LC-P15I, FR2 (antibody, human IgG4 S228P, kappa, name in Kabat numbering)
heavy: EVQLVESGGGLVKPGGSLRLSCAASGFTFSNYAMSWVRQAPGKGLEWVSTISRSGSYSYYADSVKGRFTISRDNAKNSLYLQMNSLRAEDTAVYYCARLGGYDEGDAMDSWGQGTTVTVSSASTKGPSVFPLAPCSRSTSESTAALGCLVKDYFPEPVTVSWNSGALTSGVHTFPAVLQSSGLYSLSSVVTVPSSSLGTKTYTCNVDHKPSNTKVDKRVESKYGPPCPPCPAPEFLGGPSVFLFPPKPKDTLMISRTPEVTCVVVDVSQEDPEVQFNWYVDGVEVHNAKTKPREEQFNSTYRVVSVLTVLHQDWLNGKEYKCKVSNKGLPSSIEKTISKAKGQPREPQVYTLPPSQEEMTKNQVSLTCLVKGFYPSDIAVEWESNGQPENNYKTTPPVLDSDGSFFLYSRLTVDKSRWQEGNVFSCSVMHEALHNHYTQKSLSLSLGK
light: DIVMTQTPLSLSVTIGQPASISCKSSQSLLESDGKTYLNWLLQRPGESPKLLIYLVSILDSGVPDRFSGSGSGTDFTLKISRVEAEDVGVYYCLQATHFPQTFGGGTKVEIKRTVAAPSVFIFPPSDEQLKSGTASVVCLLNNFYPREAKVQWKVDNALQSGNSQESVTEQDSKDSTYSLSSTLTLSKADYEKHKVYACEVTHQGLSSPVTKSFNRGEC
notes: Mutated CDR-grafted light chain with wild type CDR-grafted heavy chain; Kabat numbering
Kd [3]: 0.64 nM

B7: HzTFPI4F36 HC-G42E, G44R, A60P, K64Q (antibody, human IgG4 S228P, kappa, name in Kabat numbering, V domains shown)
VH: EVQLVESGGGLVKPGGSLRLSCAASGFTFSNYAMSWVRQAPEKRLEWVSTISRSGSYSYYPDSVQGRFTISRDNAKNSLYLQMNSLRAEDTAVYYCARLGGYDEGDAMDSWGQGTTVTVSS
VL: DIVMTQTPLSLSVTPGQPASISCKSSQSLLESDGKTYLNWYLQKPGQSPQLLIYLVSILDSGVPDRFSGSGSGTDFTLKISRVEAEDVGVYYCLQATHFPQTFGGGTKVEIKR
notes: Mutated CDR-grafted heavy chain with wild type CDR-grafted light chain; Kabat numbering; also called HzTFPI4F36 G42E, G44R, A60P, K64Q
Kd [4]: 0.093 nM
Kd [5]: 0.093 nM

B9: HzTFPI4F36 HC-G42E, G44R, CDR2 (antibody, human IgG4 S228P, kappa, name in Kabat numbering, V domains shown)
VH: EVQLVESGGGLVKPGGSLRLSCAASGFTFSNYAMSWVRQAPEKRLEWVSTISRSGSYSYFPDSVQGRFTISRDNAKNSLYLQMNSLRAEDTAVYYCARLGGYDEGDAMDSWGQGTTVTVSS
VL: DIVMTQTPLSLSVTPGQPASISCKSSQSLLESDGKTYLNWYLQKPGQSPQLLIYLVSILDSGVPDRFSGSGSGTDFTLKISRVEAEDVGVYYCLQATHFPQTFGGGTKVEIKR
notes: Mutated CDR-grafted heavy chain with wild type CDR-grafted light chain; Kabat numbering; also called HzTFPI4F36 G42E, G44R, Y59F, A60P, K64Q
Kd [4]: 0.039 nM
Kd [5]: 0.039 nM

More lines, now with the values ahead:

Kd [3]: 17 nM
B3: HzTFPI4F36 LC-P15I (antibody, human IgG4 S228P, kappa, name in Kabat numbering)
heavy: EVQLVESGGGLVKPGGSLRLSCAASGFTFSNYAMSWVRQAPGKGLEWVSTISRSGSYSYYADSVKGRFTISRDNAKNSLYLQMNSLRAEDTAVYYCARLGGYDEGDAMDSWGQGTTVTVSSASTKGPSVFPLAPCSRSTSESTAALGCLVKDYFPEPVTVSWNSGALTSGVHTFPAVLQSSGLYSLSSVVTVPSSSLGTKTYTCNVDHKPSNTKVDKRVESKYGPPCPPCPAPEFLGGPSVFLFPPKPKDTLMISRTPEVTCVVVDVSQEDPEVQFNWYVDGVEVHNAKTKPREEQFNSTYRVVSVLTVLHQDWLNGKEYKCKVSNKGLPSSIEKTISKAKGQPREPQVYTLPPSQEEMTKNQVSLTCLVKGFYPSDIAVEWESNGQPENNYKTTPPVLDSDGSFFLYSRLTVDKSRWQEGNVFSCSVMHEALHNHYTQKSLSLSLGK
light: DIVMTQTPLSLSVTIGQPASISCKSSQSLLESDGKTYLNWYLQKPGQSPQLLIYLVSILDSGVPDRFSGSGSGTDFTLKISRVEAEDVGVYYCLQATHFPQTFGGGTKVEIKRTVAAPSVFIFPPSDEQLKSGTASVVCLLNNFYPREAKVQWKVDNALQSGNSQESVTEQDSKDSTYSLSSTLTLSKADYEKHKVYACEVTHQGLSSPVTKSFNRGEC
notes: as for B6

Kd [3]: 7.8 nM
B4: HzTFPI4F36 LC-S63T (antibody, human IgG4 S228P, kappa, name in Kabat numbering, V domains shown)
VH: EVQLVESGGGLVKPGGSLRLSCAASGFTFSNYAMSWVRQAPGKGLEWVSTISRSGSYSYYADSVKGRFTISRDNAKNSLYLQMNSLRAEDTAVYYCARLGGYDEGDAMDSWGQGTTVTVSS
VL: DIVMTQTPLSLSVTPGQPASISCKSSQSLLESDGKTYLNWYLQKPGQSPQLLIYLVSILDSGVPDRFTGSGSGTDFTLKISRVEAEDVGVYYCLQATHFPQTFGGGTKVEIKR
notes: Mutated CDR-grafted light chain with wild type CDR-grafted heavy chain; human kappa/IgG4(S241P)

Kd [3]: > 0.03 nM
B5: HzTFPI4F36 LC-Y36L (antibody, human IgG4 S228P, kappa, name in Kabat numbering, V domains shown)
VH: EVQLVESGGGLVKPGGSLRLSCAASGFTFSNYAMSWVRQAPGKGLEWVSTISRSGSYSYYADSVKGRFTISRDNAKNSLYLQMNSLRAEDTAVYYCARLGGYDEGDAMDSWGQGTTVTVSS
VL: DIVMTQTPLSLSVTPGQPASISCKSSQSLLESDGKTYLNWLLQKPGQSPQLLIYLVSILDSGVPDRFSGSGSGTDFTLKISRVEAEDVGVYYCLQATHFPQTFGGGTKVEIKR
notes: as for B6

Kd [6]: 0.015 nM
Kd [4]: 0.026 nM
Kd [7]: 0.015 nM
koff [7]: 3.58e-05 s⁻¹
kon [7]: 2.39e+06 M⁻¹ s⁻¹
Kd [8]: 0.0455 nM
IC50, neutralization of TFPI inhibition of FVIIa/TF/FX [9]: 3.8 nM
IC50, neutralization of TFPI inhibition of FXa [10]: 12.6 nM
Kd [5]: 0.026 nM
Kd [2]: ~0.025 nM
B8: HzTFPI4F36 (mAbTFPI2021) humanized monoclonal antibody (antibody, human IgG4 S228P, kappa, V domains shown)
VH: EVQLVESGGGLVKPGGSLRLSCAASGFTFSNYAMSWVRQTPEKRLEWVATISRSGSYSYFPDSVQGRFTISRDNAKNSLYLQMNSLRAEDTAVYYCARLGGYDEGDAMDSWGQGTTVTVSS
VL: DIVMTQTPLSLSVTPGQPASISCKSSQSLLESDGKTYLNWYLQKPGQSPQLLIYLVSILDSGVPDRFSGSGSGTDFTLKISRVEAEDVGVYYCLQATHFPQTFGGGTKVEIKR
notes: human kappa/IgG4(S241P); also called mAb2021; mAbTFPI4F36
